{"source": "the nanobody polyreactivity screen of Harvey et al. (2022)"}
{"assay": "yeast display, Sf9 membrane polyspecificity reagent, FACS + sequencing; frameworks hold sequencing errors", "method_in_brief": "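Using colony PCR, genes from sorted yeast display clones were amplified, then sequenced on MiSeq at 2 × 250 and filtered by CDR length. The clones had been stained with 10% biotinylated, detergent-solubilized Sf9 membrane reagent for 1 hour at 4 °C and sorted by FACS into low and high (top ~1%) gates on anti-HA and streptavidin fluorescence. Polyreactivity labels come from the gate of origin.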"}
{"sequence": "QVQHVESGGGLVQAGGSLRLSCAASGGIFSIYTRGWYRQAPGKERELVAAITSGGNTNYADSVKGRFTISRDNAKNTVYLQMNSLKPEDTAVYYCAKTYTEYSVTRSGARMDYWGQGTQVTVSS", "polyreactivity (PSR sort gate)": "low polyreactivity"}
{"sequence": "QVQHVESGGGLVQAGGSLRLSCAASGGIFVANAMGWYRQAPGKERELVAAISRSGGSTYYADSVKGRFTISRDNAKNTVYLQMNSLKPEDTAVYYCAAKSRRQYTVGLTSDYWGQGTQVTVSS", "polyreactivity (PSR sort gate)": "low polyreactivity"}
{"sequence": "QVQHVESGGGLVQAGGSLRLSCAASGGTFRWNAMGWYRQAPGQERELVAAITKSGGSTYYADSVKGRFTISRDNAKNTVYLQMNSLKPEDTAVYYCATDYLRRRDYWGQGTQVTVSS", "polyreactivity (PSR sort gate)": "high polyreactivity"}
{"sequence": "QVQHVESGGGLVQAGGSLRLSCAASGIIFGGNAMGWYRQAPGKERELVAGISGSGASTYYADSVKGRFTISRDNAKNTVYLQMNSLKPEDTAVYYCAADGYPGDDYWGQGTQVTVSS", "polyreactivity (PSR sort gate)": "high polyreactivity"}
{"sequence": "QVQHVESGGGLVQAGGSLRLSCAASGIIFGSNVMGWYRQAPGKERELVAAISYSGASTYYADSVKGRFTISRDNAKNTVYLQMNSLKPEDTAVYYCAADGHRNGYYYHEYDSWGQGTQVTVSS", "polyreactivity (PSR sort gate)": "low polyreactivity"}
{"sequence": "QVQHVESGGGLVQAGGSLRLSCAASGIIFIGNAMGWYRQAPGKEGALVAANTDSGGRTYYADSVKGRFTISRDNAKNSVYLQMNCLKPEDTAVYYCARDRGKNTPYDYWGQGTLVTVSS", "polyreactivity (PSR sort gate)": "low polyreactivity"}
{"sequence": "QVQHVESGGGLVQAGGSLRLSCAASGIIIKFYAMGWYRKAPVKERELVATITFSSGTTYYADSVKGRFTMSRDNAKTTVYFQMNSLKPEDTAVYYCAASTLPAWPYDGPAGPRYDYWGQGTQVTVSS", "polyreactivity (PSR sort gate)": "low polyreactivity"}
{"sequence": "QVQHVESGGGLVQAGGSLRLSCAASGITFSYYAMGWYIQAPGKEREFVAAISWSGGSTYYADSVKGRFTISRDNAKNTVYLQMNSLKPEVTAVYYCAADRYPYGLDYWGQGTQVTVSS", "polyreactivity (PSR sort gate)": "high polyreactivity"}
{"sequence": "QVQHVESGGGLVQAGGSLRLSCAASGLIFSKNVMGWYRQARGKEREFVAAISQRGGSTYYADSVKGRFTISRDNAKNTVYVQMNSLKPEDTAVYYCAADNTVSHEDFWGQGTQVTVSS", "polyreactivity (PSR sort gate)": "high polyreactivity"}
{"sequence": "QVQHVESGGGLVQAGGSLRLSCAASGLIFWLNAMGWYRHEPGKEREMVATITAGGDDTNYADPVKGRFTISRDNAKNTVYLQMNSLKPEDTAVYYCAKSRTRSGHYGYDYWGQGTQVTVSS", "polyreactivity (PSR sort gate)": "low polyreactivity"}
{"sequence": "QVQHVESGGGLVQAGGSLRLSCAASGLILVYYAMGWYRQAPGKERELVAAITPGGSTKYADSVKGRFTISRDNAKNTVYLQMNSLKPEDTAVYYCAVDGDCHEPGNYIYEYDYWGQGTQVTVSS", "polyreactivity (PSR sort gate)": "low polyreactivity"}
{"sequence": "QVQHVESGGGLVQAGGSLRLSCAASGLTFTYYVKGCYRQAPGKERELVAAITVSGGSTYYADSVKGRFTISRDNAKNTVYLQMNSLKPEDTAVYYCAADAYSGYSDYYWGQGTQVTVSS", "polyreactivity (PSR sort gate)": "low polyreactivity"}
{"sequence": "QVQHVESGGGLVQAGGSLRLSCAASGNNVMGWYRQAPGKDRELVGAISWSGTSTYADSVKGRFTISRVNAKNTVYLKMNSLKPEDTAVYYCAAEQQGRNYRAYRRYDYWGQGTQVTVSS", "polyreactivity (PSR sort gate)": "low polyreactivity"}
{"sequence": "QVQHVESGGGLVQAGGSLRLSCAASGNTFSANAMGWYRQAPVKEREFVASITWSGGSTYYADSVKGRFTFSRDNAKNTVYLQMNSLKPEDTAVYYCAAESWFKYDYWGQGTQVTVSS", "polyreactivity (PSR sort gate)": "low polyreactivity"}
{"sequence": "QVQHVESGGGLVQAGGSLRLSCAASGRIFGVYVMGWYRQAPGKERELVAAITGGGSTYYADSVKGRFTISRDNAKNTVYLQMNSLKPEDTAVYYCAARYLVTYGHQQRYYYWGQGTQVTVSS", "polyreactivity (PSR sort gate)": "high polyreactivity"}
{"sequence": "QVQHVESGGGLVQAGGSLRLSCAASGRIFPYYAMGWYRQAPGKEREFVAAITKRGGSTSYADSVKGRFTISRDNAKNTVYLQMNSLKPEDTAVYYCAAAGVYYGVRGTTYAYDYWGQGTQVTVSS", "polyreactivity (PSR sort gate)": "low polyreactivity"}
{"sequence": "QVQHVESGGGLVQAGGSLRLSCAASGRIFRYNAMGWYRQAPGKERELVAAITNGGSTNYADSVKGRFTISRDNAKNTVYLQMNSLKPEDTAVYYCNAQGRRYSQRYYYWGQGTQVTVSS", "polyreactivity (PSR sort gate)": "high polyreactivity"}
{"sequence": "QVQHVESGGGLVQAGGSLRLSCAASGRIFVNYAMGWSRQAPGKERELVAAITYIDSGTYYADSVKGRFTISRDNAKNTVYFQRNSLKPEDTAVYYCAVRLNSDSNRKTQKYGYWGQGTQVTVSS", "polyreactivity (PSR sort gate)": "low polyreactivity"}
{"sequence": "QVQHVESGGGLVQAGGSLRLSCAASGRIFVYYAMGWYRQEPGKERELVATISSGGSTYYADSVKGRFTISRDNAKNTVYLHMNSLKPEDTAVYYCNARDWYLWSTYRSWYDYWGEGTQVTVSS", "polyreactivity (PSR sort gate)": "low polyreactivity"}
{"sequence": "QVQHVESGGGLVQAGGSLRLSCAASGRIFYLNAMGWYREAPGKERELVAAINTSGDSTYYADSVKGRFTISRDNAKNTVYLQMNSLKPVDTAVFYCAAYVIGPDQFIYDYWGQGTQVTVSS", "polyreactivity (PSR sort gate)": "low polyreactivity"}
{"sequence": "QVQHVESGGGLVQAGGSLRLSCAASGRIIYRYAMGWYRQATGKERELVATITWSTTSTYYADSVKGRFTISREYAKNTVYLQMNSLKPVDTAVYYCAASIIPGFRRDPFGYWGQGTQVTVSS", "polyreactivity (PSR sort gate)": "low polyreactivity"}
{"sequence": "QVQHVESGGGLVQAGGSLRLSCAASGRILKPNAMGWYRPAPGKERELVAAIRWRGDITYYADSVKGRFTISRDNAKNTVYLQMNSLKPEDTAVYYCNARTYYRRQKYDYWGQGTKVTVSS", "polyreactivity (PSR sort gate)": "high polyreactivity"}
{"sequence": "QVQHVESGGGLVQAGGSLRLSCAASGRISLSNAMGWYRQAPGKEREFVAAITKRSDRTYYADSVKGRFTISRDNAKNTVYLQMNSLKPEDTAVYYCAAKPLFGTRDDYWGLGTQVTVSS", "polyreactivity (PSR sort gate)": "low polyreactivity"}
{"sequence": "QVQHVESGGGLVQAGGSLRLSCAASGRTFARYTMGWYRQAPGKERELVAVISRSGGSTYYADSVKGRFTISRDNAKNSVYLQMNSVKPEDTAVYYCAAGDFVVSTLEYYYWGQGTQVTVSS", "polyreactivity (PSR sort gate)": "high polyreactivity"}
{"sequence": "QVQHVESGGGLVQAGGSLRLSCAASGRTFDWYAMGRYRQAPGKEMELVAAISSGGSTYYADSVKGRFTISRDNAKNTVYLQMNSLKPEDTAVYYCAAEWHYIYAYDYWGQGTQVTVSS", "polyreactivity (PSR sort gate)": "low polyreactivity"}
{"sequence": "QVQHVESGGGLVQAGGSLRLSCAASGRTFKGYAMGWYRQAPGKESQLVAGISTGGNTNYADSVMGRFTISRDNAKNTVYLQMNSLKPEDTAVYYCNAVYRGFTHYTGYEYWGQGTQVTVSS", "polyreactivity (PSR sort gate)": "high polyreactivity"}
{"sequence": "QVQHVESGGGLVQAGGSLRLSCAASGRTFQWYTLGWYRQAPGKERELVAAISWSGTSTYYADSVKGRFTISRDNEKNTVYLLMNSLKPEDTAVYYCAAKTYPSLFFHYGYWGQGTQVTVSS", "polyreactivity (PSR sort gate)": "low polyreactivity"}
{"sequence": "QVQHVESGGGLVQAGGSLRLSCAASGRTFRSYAMGWYRQAPGKEREFVATITRRGGSTYYADSVKGRFTISRDNAKNTVYLQMNSLKPEDTAVYYCNAVVSSQEYDYWGQGTQVTVSS", "polyreactivity (PSR sort gate)": "high polyreactivity"}
{"sequence": "QVQHVESGGGLVQAGGSLRLSCAASGRTFRYNAMGWSRQAPGKERELVAAISSGDRTNYADSVKGRFTISRDNAKYTVYLQMYSLKPEDTAVYYCAAQTDSYYDFDYWGQGTQVTVSS", "polyreactivity (PSR sort gate)": "low polyreactivity"}
{"sequence": "QVQHVESGGGLVQAGGSLRLSCAASGRTFTRYTMGWYRQAPGKERELVAAIRFSGGSTYYADSVKGRFTISRDNAKNTVYLQMNSLKPEDTAVYYCAATGGWYKHWFDYWGQGTQVTVSS", "polyreactivity (PSR sort gate)": "low polyreactivity"}
{"sequence": "QVQHVESGGGLVQAGGSLRLSCAASGRTFYRNAMGWYRPAPGKERELVAAISWSGGRTFYADSVKGRFTISRDNAKNTVYLQMNSLKPEDTAVYYCAKTYTTPGYYRYDYWGKGTQVTVSS", "polyreactivity (PSR sort gate)": "high polyreactivity"}
{"sequence": "QVQHVESGGGLVQAGGSLRLSCAASGSIFGKYAMGWYRQAPGKERELVARISRSSGSTYYADSVKGRFTISRDNAKNTVYLQMNSLKPEDTAVYYCAARAYLNQARPKYGYSYDYWGQGTQVTVSS", "polyreactivity (PSR sort gate)": "high polyreactivity"}
{"sequence": "QVQHVESGGGLVQAGGSLRLSCAASGSIFGTYAIGWYRQAPGKERELVATISYGDGSTYYADSVKGRFTISRDNAKNTVYLEMNSLKPEDTAVYYCNTGVYSSGGPLDYWGQGTQVTVSS", "polyreactivity (PSR sort gate)": "low polyreactivity"}
{"sequence": "QVQHVESGGGLVQAGGSLRLSCAASGSIFNRNAMGWYRQAPGKERELVAAITRRGGSTYYADSVKVRFTISRDNAMNTVYLQMNSLKPEDTAVYYCAAATRKTEYDYWGQGSQVTVSS", "polyreactivity (PSR sort gate)": "high polyreactivity"}
{"sequence": "QVQHVESGGGLVQAGGSLRLSCAASGSIFPLNAMGWSRQAPGQVSELVASISTGSSTYYADSVKGRFTISRDNAKNTVYLQMISLKPEDTAVYFCAVDRVLFSDFNRGYEYNYWGQGTQVTVSS", "polyreactivity (PSR sort gate)": "low polyreactivity"}
{"sequence": "QVQHVESGGGLVQAGGSLRLSCAASGSIFPVYAMRWYRQAPGKEREFVASIRWRGGSTSYADSVKGRFTISRDNAKNTVYLQMNSLKPEDTAVYYCNAVYYSWAQSARFDYWGQGTQVTVSS", "polyreactivity (PSR sort gate)": "low polyreactivity"}
{"sequence": "QVQHVESGGGLVQAGGSLRLSCAASGSIFSYYAMGWYRQPPGKERELVATISSGDSTYYADSVKGRFTISRDNAKKTVYLQMNSLKPEDTAVYYCARKPRIRYYPAPYDYWGQGTQVTVSS", "polyreactivity (PSR sort gate)": "low polyreactivity"}
{"sequence": "QVQHVESGGGLVQAGGSLRLSCAASGSIIPSNVMGWYRQATGKEREFVAGITFRVGSTYYADSVKGRFTISLDNAKNTVYLQMNSLKPEDTAVYYCAALIRAVDRYTYRYGYWGQGTQVTVSS", "polyreactivity (PSR sort gate)": "high polyreactivity"}
{"sequence": "QVQHVESGGGLVQAGGSLRLSCAASGSTFGPNAMGWYRQAPGKERELVAAINTRGGSTYYADSVKGRFTISRDNAKNTVYLQMNSLKPEDTAVYYCAAEYVVWYLDRFNYWGQGTQVTVSS", "polyreactivity (PSR sort gate)": "high polyreactivity"}
{"sequence": "QVQHVESGGGLVQAGGSLRLSCAASGSTFHDYAMAWYRQATGKEREFVAAIRWRGGSTYYADSVKGRFTISRDNAKNTVYLQMNSLKPEDTAVYYCAADYLQFRKYVVHFDYLGQGTQVTVSS", "polyreactivity (PSR sort gate)": "low polyreactivity"}
{"sequence": "QVQHVESGGGLVQAGGSLRLSCAASGSTFWNKAMGWYRQAPGKEREFVAAITRSTTSTYYADSVKGRFTISRDNAKNTVYLQMNSLKPEDTAVYFCAADTDIVLYDYWGQGTQVTVSS", "polyreactivity (PSR sort gate)": "low polyreactivity"}
